Target: T1, LPL on LPL-expressing cells (Example 1)
T1 sequence (P06858 28-475, species assumed, looked up): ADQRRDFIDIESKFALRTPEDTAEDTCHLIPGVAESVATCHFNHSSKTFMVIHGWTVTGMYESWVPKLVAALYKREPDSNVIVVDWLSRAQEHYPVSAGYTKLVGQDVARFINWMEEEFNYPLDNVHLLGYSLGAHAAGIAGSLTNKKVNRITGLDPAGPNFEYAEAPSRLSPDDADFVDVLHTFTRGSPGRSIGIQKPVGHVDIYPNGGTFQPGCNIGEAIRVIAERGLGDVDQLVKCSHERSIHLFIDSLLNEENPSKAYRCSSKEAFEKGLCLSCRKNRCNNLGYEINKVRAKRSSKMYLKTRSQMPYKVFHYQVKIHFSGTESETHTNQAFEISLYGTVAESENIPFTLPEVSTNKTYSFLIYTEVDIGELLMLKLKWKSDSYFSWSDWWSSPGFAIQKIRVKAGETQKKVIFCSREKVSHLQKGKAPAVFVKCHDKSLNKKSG
Test: cell-based or functional assay

B1: human ANGPTL3 (ligand)
chain: SRIDQDNSSFDSLSPEPKSRFAMLDDVKILANGLLQLGHGLKDFVHKTKGQINDIFQKLNIFDQSFYDLSLQTSEIKEEEKELRRTTYKLQVKNEEVKNMSLELNSKLESLLEEKILLQQKVKYLEEQLTNLIQNQPETPEHPEVTSLKTFVEKQDNSIKDLLQTVEDQYKQLNQQHSQIKEIENQLRRTSIQEPTEISLSSKPRAPRTTPFLQLNEIRNVKHDGIPAECTTIYNRGEHTSGMYAIRPSNSQVFHVYCDVISGSPWTLIQHRIDGSQNFNETWENYKYGFGRLDGEFWLGLEKIYSIVKQSNYVLRIELEDWKDNKHYIEYSFYLGNHETNYTLHLVAITGNVPNAIPENKDLVFSTWDHKAKGHFNCPEGYSGGWWWHDECGENNLNGKYNKPRAKSKPERRRGLSWKSQNGRLYSIKSTKMLIHPTDSESFE
EC50 in the LPL assay (inhibition of LPL): 21.5 nM

B2: human ANGPTL3/8 complex (other)
chain 1: SRIDQDNSSFDSLSPEPKSRFAMLDDVKILANGLLQLGHGLKDFVHKTKGQINDIFQKLNIFDQSFYDLSLQTSEIKEEEKELRRTTYKLQVKNEEVKNMSLELNSKLESLLEEKILLQQKVKYLEEQLTNLIQNQPETPEHPEVTSLKTFVEKQDNSIKDLLQTVEDQYKQLNQQHSQIKEIENQLRRTSIQEPTEISLSSKPRAPRTTPFLQLNEIRNVKHDGIPAECTTIYNRGEHTSGMYAIRPSNSQVFHVYCDVISGSPWTLIQHRIDGSQNFNETWENYKYGFGRLDGEFWLGLEKIYSIVKQSNYVLRIELEDWKDNKHYIEYSFYLGNHETNYTLHLVAITGNVPNAIPENKDLVFSTWDHKAKGHFNCPEGYSGGWWWHDECGENNLNGKYNKPRAKSKPERRRGLSWKSQNGRLYSIKSTKMLIHPTDSESFEAAADYKDDDDK
chain 2: APMGGPELAQHEELTLLFHGTLQLGQALNGVYRTTEGRLTKARNSLGLYGRTIELLGQEVSRGRDAAQELRASLLETQMEEDILQLQAEATAEVLGEVAQAQKVLRDSVQRLEVQLRSAWLGPAYREFEVLKAHADKQSHILWALTGHVQRQRREMVAQQHRLRQIQERLHTAALPA
EC50 in the LPL assay (inhibition of LPL): 0.54 nM
